The record followed here is article PMC13399220.

Assay [1] concerns the target IN CTD mutant (RRKAK to RAAAK) (HIV-1) (UniProt P12497). Nature of the assay: BLI; IN CTD construct (5 uM, acetate buffer pH 5) amine-coupled (EDC/NHS) to carboxyl biosensors, Imp7 in solution at 1-40 000 nM; steady-state analysis; 25 °C; GatorPrime. (Biolayer interferometry detects binding as a change in optical thickness at a sensor tip.)
Assay [2] deals with C-terminal domain of HIV-1 integrase (HIV-1) (UniProt P12497). Described as above.

As for “Xenopus laevis importin 7 (natural protein)”, the results for the dissociation constant Kd in assay [1] and in assay [2] were 299 nM and 17.9 nM, respectively. Also, the stoichiometry N (commonly a count of units in the complex or per binding partner) in assay [2] was found to be 1.
